The values below come from publication PMC5465037.

The target in the assay is wild-type desmin, human (human) (UniProt P17661). Nature of the assay: co-sedimentation.

On to “wild-type desmin, human (from UniProt P17661 1-470) (natural protein)”, for which the percent of desmin pelleted at 22 °C was determined as 83.8%, the percent of desmin pelleted at 37 °C came to 93.3% and the percent of desmin pelleted at 44 °C turned out to be 94.3%.
